Measurements: patent US20240043568A1 (KEYMED BIOSCIENCES, published 2024)
Where two headings read alike, the source gives them in different places.

Legend:
[1] = biological target: T1, recombinant human GPC3 protein (human, UniProt P51654 25-563); experiment: BLI (Octet), antibody on Protein A probe
T1 construct: also called human GPC3 full-length protein; recombinant GPC3 protein
Procedure: (§1) Using BLI technology (Octet), the antibody to be tested was captured on the Protein A probe. The binding capacity with human GPC3 protein (10 μg/ml as the initial concentration, 2-fold gradient, a total of 5 concentration points) was detected. The affinity constant KD was obtained according to the association and dissociation rates. The 49G8 humanized antibody binds to the recombinant GPC3 protein with high affinity. The affinity data is seen in Table 6.

[2] = biological target: T1, recombinant human GPC3 protein; experiment: ELISA on coated recombinant human GPC3 protein, OD450 [panel Recombinant human GPC3 protein]
[3] = biological target: T1, recombinant human GPC3 protein; experiment: BLI (Octet), antibody on Protein A probe; remark: listed apart in the source
Procedure: as §1, with “rates.” for “rates. The 49G8 humanized antibody binds to the recombinant GPC3 protein with high affinity. The affinity data is seen in Table 6.”

[4] = biological target: T1, recombinant human GPC3 protein; experiment: ELISA, coated antigen 1 µg/ml
Procedure: (§2) The high-affinity positive clone 49G8 was selected to detect binding activity to recombinant human, cynomolgus monkey, mouse GPC3 full-length proteins, and recombinant human GPC3 extracellular domain membrane-proximal proteins. 1 μg/ml of the above-mentioned protein was coated overnight at 4° C. After blocking, 49G8 chimeric antibody (initial concentration 200 nM, 3-fold gradient dilution, a total of 12 concentrations) was added and reacted for 1 hour at room temperature. The secondary antibody HPR-labeled goat anti-human IgG Fc was added. After being developed by the TMB solution, the reaction was stopped with concentrated sulfuric acid, and the absorbance was read at […]. The 49G8 antibody can bind to the full-length human and cynomolgus monkey GPC3 proteins and the membrane-proximal end of the extracellular region of human GPC3 with a slightly higher affinity than the control antibody and a weak affinity to mouse GPC3 protein (Table 3).

[5] = biological target: T2, recombinant GST-human GPC3 stem protein (human); experiment: ELISA, coated antigen 1 µg/ml
T2 construct: also called recombinant human GPC3 extracellular domain membrane-proximal protein
Procedure: as §2

[6] = biological target: T3, recombinant cynomolgus monkey GPC3 full-length protein (cynomolgus monkey, UniProt A0A2K5VK50 24-558); experiment: ELISA, coated antigen 1 µg/ml
Procedure: as §2

[7] = biological target: T4, human GPC3 on cells (human, UniProt P51654 25-563); experiment: flow cytometry, CHO-human GPC3 cells
T4 construct: whole, on cells; One molecule is used for both CHO-hGPC3 transfectants and GPC3+ HepG2 cells; The assay field names the cell; also called CHO-hGPC3 (clone 2B10); CHO-human GPC3
Procedure: The binding of the antibodies to human GPC3 stably-transfected cells was detected by FACS. CHO-human GPC3 stably-transfected cells prepared in Example 1 in the logarithmic growth phase were adjusted to 5×10⁵ cells/ml with 4% calf serum (Hyclone, SH30626.06). 100 μl/well of cell suspension was added to a 96-well U-plate, and centrifuged at 300 g for 5 min. The supernatant was discarded. 100 μL of gradient diluted antibodies (initial concentration 200 nM, 3-fold dilution, 12 gradients) was added to each well and incubated at 4° C. for 45 min. The secondary antibody Alexa Fluro647 labeled goat anti-human IgG Fc (1:300 dilution) was added at 50 μL/well, incubated on ice for 45 minutes, and detected by flow cytometry.

[8] = biological target: T3, recombinant cynomolgus monkey GPC3 …; experiment: ELISA on coated recombinant cynomolgus monkey GPC3 protein, OD450 [panel Recombinant cynomolgus monkey GPC3 protein]

T2 sequence (chain, as listed by the source limits assumed): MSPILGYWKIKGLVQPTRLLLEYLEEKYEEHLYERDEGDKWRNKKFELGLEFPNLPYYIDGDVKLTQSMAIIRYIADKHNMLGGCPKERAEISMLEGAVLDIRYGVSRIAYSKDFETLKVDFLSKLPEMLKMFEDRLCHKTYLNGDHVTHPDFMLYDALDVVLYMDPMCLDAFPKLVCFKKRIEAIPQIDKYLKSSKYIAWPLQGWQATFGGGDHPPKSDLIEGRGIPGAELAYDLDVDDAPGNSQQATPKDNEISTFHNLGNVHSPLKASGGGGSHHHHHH

B1: 49G8 (antibody, V domains shown)
VH: QVQLQQSGAELVRPGASVKLSCKALGYTFADYEIHWVKQTPVHGLEWIGAIHPGSGGTAYNQTFEGKATLTADKSSTTAYMELSSLTSEDSAVYYCTRYYSFAYWGQGTLVTVSA
VL: DVVMTQTPLSLPVSLGDQASISCRSSQSIVHSNGNTYLEWYLQKPGQSPKLLIYKVSNRFSGVPDRFSGSGSGTDFTLKISRVEAEDLGVYFCLQVTHVPLTFGAGTKLELK
notes: Chimeric human IgG1; also called 49G8 chimeric antibody; Mab 49G8
Kd [1]: 1.17 nM
koff [1]: 9.35e-05 s⁻¹
kon [1]: 79700 M⁻¹ s⁻¹
EC50 (read off the curve) [2]: ~0.03 nM
Kd [3]: 3.32 nM
koff [3]: 0.000231 s⁻¹
kon [3]: 69400 M⁻¹ s⁻¹
EC50 [4]: 0.072 nM
EC50 [5]: 0.074 nM
EC50 [6]: 0.12 nM
EC50 [7]: 1.18 nM
EC50 (read off the curve) [8]: ~0.03 nM
